{
  "source": "FireProtDB (doi:10.1021/bi00815a015)",
  "proteins": {"B1": {"name": "Guanyl-specific ribonuclease T1 wild type, P00651 (protein)", "chain": "MMYSKLLTLTTLLLPTALALPSLVERACDYTCGSNCYSSSDVSTAQAAGYQLHEDGETVGSNSYPHKYNNYEGFDFSVSSPYYEWPILSSGDVYSGGSPGADRVVFNENNQLAGVITHTGASGNNFVECT"}},
  "details": "Aspergillus oryzae (strain ATCC 42149 / RIB 40), Thermal, DSC, whole UniProt chain shown",
  "key": {"[1]": {"details": "pH 0.36, glycine 0.2 N, HCl, reversible: yes"}, "[2]": {"details": "pH 1.05, HCl, NaCl 0.2 N, reversible: yes"}, "[3]": {"details": "pH 2.02, glycine 0.2 N, reversible: yes"}, "[4]": {"details": "pH 2.8, glycine 0.2 N, reversible: yes"}, "[5]": {"details": "pH 3.28, glycine 0.2 N, reversible: yes"}, "[6]": {"details": "pH 4.04, acetate 0.2 N, reversible: no"}, "[7]": {"details": "pH 5, acetate 0.2 N, reversible: no"}, "[8]": {"details": "pH 6.23, acetate 0.2 N, reversible: no"}, "[9]": {"details": "pH 7, None, NaCl 0.2 N, reversible: no"}, "[10]": {"details": "pH 7.8, None, NaCl 0.2 N, reversible: no"}},
  "note": "Several values for one entry are separate records, joined by “and”; a condition that tells them apart may be missing. Equal values may be shown once.",
  "data": [
    {"protein": "B1", "values": [
      {"measurement": "Tm", "setting": "pH 0.36, HCl, reversible: yes", "value": 25, "unit": "°C"},
      {"measurement": "unfolding enthalpy (calorimetric)", "setting": "pH 0.36, HCl, reversible: yes", "value": 204, "unit": "kJ/mol"},
      {"measurement": "Tm", "setting": "[1]", "value": 31.5, "unit": "°C"},
      {"measurement": "heat capacity change of unfolding", "setting": "[1]", "value": 1.9, "unit": "kcal/mol/K"},
      {"measurement": "unfolding enthalpy (calorimetric)", "setting": "[1]", "value": 256, "unit": "kJ/mol"},
      {"measurement": "unfolding enthalpy (van 't Hoff)", "setting": "[1]", "value": 259, "unit": "kJ/mol"},
      {"measurement": "Tm", "setting": "[2]", "value": 25, "unit": "°C"},
      {"measurement": "unfolding enthalpy (calorimetric)", "setting": "[2]", "value": 205, "unit": "kJ/mol"},
      {"measurement": "Tm", "setting": "[3]", "value": 31.2, "unit": "°C"},
      {"measurement": "heat capacity change of unfolding", "setting": "[3]", "value": 1.98, "unit": "kcal/mol/K"},
      {"measurement": "unfolding enthalpy (calorimetric)", "setting": "[3]", "value": 274, "unit": "kJ/mol"},
      {"measurement": "unfolding enthalpy (van 't Hoff)", "setting": "[3]", "value": 280, "unit": "kJ/mol"},
      {"measurement": "heat capacity change of unfolding", "setting": "[4]", "value": 2.11, "unit": "kcal/mol/K"},
      {"measurement": "unfolding enthalpy (calorimetric)", "setting": "[4]", "value": "367 kJ/mol and 229 kJ/mol"},
      {"measurement": "unfolding enthalpy (van 't Hoff)", "setting": "[4]", "value": 285, "unit": "kJ/mol"},
      {"measurement": "Tm", "setting": "[5]", "value": 25, "unit": "°C"},
      {"measurement": "unfolding enthalpy (calorimetric)", "setting": "[5]", "value": 265, "unit": "kJ/mol"},
      {"measurement": "heat capacity change of unfolding", "setting": "[6]", "value": 2.08, "unit": "kcal/mol/K"},
      {"measurement": "unfolding enthalpy (calorimetric)", "setting": "[6]", "value": "527 kJ/mol and 290 kJ/mol"},
      {"measurement": "unfolding enthalpy (van 't Hoff)", "setting": "[6]", "value": 268, "unit": "kJ/mol"},
      {"measurement": "heat capacity change of unfolding", "setting": "[7]", "value": 2.25, "unit": "kcal/mol/K"},
      {"measurement": "unfolding enthalpy (calorimetric)", "setting": "[7]", "value": "632 kJ/mol and 323 kJ/mol"},
      {"measurement": "unfolding enthalpy (van 't Hoff)", "setting": "[7]", "value": 251, "unit": "kJ/mol"},
      {"measurement": "heat capacity change of unfolding", "setting": "[8]", "value": 2.05, "unit": "kcal/mol/K"},
      {"measurement": "unfolding enthalpy (calorimetric)", "setting": "[8]", "value": "651 kJ/mol and 340 kJ/mol"},
      {"measurement": "unfolding enthalpy (van 't Hoff)", "setting": "[8]", "value": 276, "unit": "kJ/mol"},
      {"measurement": "heat capacity change of unfolding", "setting": "[9]", "value": 2.07, "unit": "kcal/mol/K"},
      {"measurement": "unfolding enthalpy (calorimetric)", "setting": "[9]", "value": "703 kJ/mol and 389 kJ/mol"},
      {"measurement": "unfolding enthalpy (van 't Hoff)", "setting": "[9]", "value": 368, "unit": "kJ/mol"},
      {"measurement": "heat capacity change of unfolding", "setting": "[10]", "value": 2, "unit": "kcal/mol/K"},
      {"measurement": "unfolding enthalpy (calorimetric)", "setting": "[10]", "value": "745 kJ/mol and 441 kJ/mol"},
      {"measurement": "unfolding enthalpy (van 't Hoff)", "setting": "[10]", "value": 301, "unit": "kJ/mol"}
    ]}
  ]
}
